Patent US20150329824A1 (NATIONAL CHENG KUNG UNIVERSITY, published 2015)
No end group written: not given here.

Biological target: T1, membrane hyaluronidase Hyal-2 on spleen cells of NOD-SCID mice (mouse (spleen cells of NOD-SCID mice), UniProt O35632 21-448)
T1 construct: whole, on cells; Endogenous protein on mouse spleen cells, detected with an antibody against Hyal-2; also called hyaluronidase-2
T1 sequence (looked up): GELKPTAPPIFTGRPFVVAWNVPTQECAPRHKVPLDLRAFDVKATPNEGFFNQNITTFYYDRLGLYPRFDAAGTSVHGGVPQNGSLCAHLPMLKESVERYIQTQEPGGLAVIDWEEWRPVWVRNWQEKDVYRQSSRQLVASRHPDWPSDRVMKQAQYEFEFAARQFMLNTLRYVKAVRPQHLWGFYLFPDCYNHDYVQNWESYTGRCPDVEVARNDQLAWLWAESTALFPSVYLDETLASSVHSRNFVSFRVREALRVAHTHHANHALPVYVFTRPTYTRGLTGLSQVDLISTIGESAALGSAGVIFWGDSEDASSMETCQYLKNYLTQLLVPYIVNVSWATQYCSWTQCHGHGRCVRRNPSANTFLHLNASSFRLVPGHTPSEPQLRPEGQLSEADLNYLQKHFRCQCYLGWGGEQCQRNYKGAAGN
Assay: epifluorescence and confocal microscopy of NOD-SCID spleen cells stained with TMR-Zfra1-31 and Hyal-2 antibody
Description: FIG. 2 includes photos showing the identification of Zfra⁺ Hyal-2⁺ spleen cells. A and B: Spleen cells of NOD-SCID mice were isolated and stained with synthesized peptide TMR-Zfra₁₋₃₁ and Hyal-2 (green fluorescence) antibody for 30 minutes on ice, and then fixed with 4% formaldehyde. Zfra bound to membrane hyaluronidase Hyal-2, as determined by epifluorescence and confocal microscopy.
In this example, spleen cells were isolated from immune deficient NOD-SCID mice, which are deficient in T and B lymphocytes and NK cells. The isolated spleen cells were stained with antibody against Hyal-2 (green) and TMR-Zfra (Zfra₁₋₃₁ labeled with red fluorescent tetramethylrodamine) for 30 minutes on ice, and then fixed with 4% formaldehyde (FIG. 2). […] These Hyal-2⁺ Zfra⁺ positive cells are interchangeably referred to as “Z cells,” for cells interacting with Zfra.

- binding result: binds
B1: TMR-Zfra1-31 (Zfra1-31 labeled with red fluorescent tetramethylrodamine) (peptide)
peptide: MSSRRSSSCKYCEQDFRAHTQKNAATPFLAN
modifications: cysteine pairing not given here; also: tetramethylrhodamine (TMR) label, position not given here
notes: Synthesized full-length Zfra peptide with a TMR label, used to stain spleen cells; also called Tetramethylrhodamine-Zfra
